Assay results reported in FireProtDB (doi:10.1021/bi9707180).

Settings: Aspergillus oryzae (strain ATCC 42149 / RIB 40), 0 °C, Urea, CD, reversible: yes, whole UniProt chain shown

B1: Guanyl-specific ribonuclease T1 wild type, P00651 (protein)
chain: MMYSKLLTLTTLLLPTALALPSLVERACDYTCGSNCYSSSDVSTAQAAGYQLHEDGETVGSNSYPHKYNNYEGFDFSVSSPYYEWPILSSGDVYSGGSPGADRVVFNENNQLAGVITHTGASGNNFVECT
With B1 the denaturant m value (pH 2.5, glycine 30 mM) was 1.58 kcal/mol/M, the “denaturant midpoint (higher = more stable)” value (pH 2.5, glycine 30 mM) was 2.78 M and the denaturant m value (pH 7, MOPS 30 mM) was 1.28 kcal/mol/M. The “denaturant midpoint (higher = more stable)” value (pH 7, MOPS 30 mM) was 4.32 M.
